From patent US20160084841A1, “Method for Predicting Clinical Effect of Immunotherapy” (INTERNATIONAL INSTITUTE OF CANCER IMMUNOLOGY, INC., priority 2013, published 2016)

B1: WT1-frg1: long-chain peptide (182 aa, SEQ ID NO: 64) containing the whole length of the administered WT1126 peptide (protein)
chain: MGSDVRDLNALLPAVPSLGGGGGCALPVSGAAQWAPVLDFAPPGASAYGSLGGPAPPPAPPPPPPPPPHSFIKQEPSWGGAEPHEEQCLSAFTVHFSGQFTGTAGACRYGPFGPPPPSQASSGQARMFPNAPYLPSCLESQPAIRNQGYSTVTFDGTPSYGHTPSHHAAQFPNHSFKHEDPM
B2: WT1-frg2: long chain peptide (145 aa, SEQ ID NO: 61) containing the whole length (Y2M) of the administered WT1235 peptide (protein)
chain: DPMGQQGSLGEQQYSVPPPVYGCHTPTDSCTGSQALLLRTPYSSDNLYQMTSQLECMTWNQMNLGATLKGVAAGSSSSVKWTEGQSNHSTGYESDNHTTPILCGAQYRIHTHGVFRGIQDVRRVPGVAPTLVRSASETSEKRPFM

How the values were obtained:
[1] = test system: anti-WT1126 peptide IgG antibody; assay: ELISA using variant WT1 antigen peptide as immobilized antigen to assay anti-WT1126 peptide IgG antibody; assay type: binding, human; conditions: serum of pancreatic cancer patient given WT1126 peptide; increase in titer detected; FIG. 20
Experimental: WT126-134 (SEQ ID NO: 65), WK126-134 (SEQ ID NO: 66), WT128-134 (SEQ ID NO: 67), WT126-132 (SEQ ID NO: 68), WT129-134 (SEQ ID NO: 69), WT126-131 (SEQ ID NO: 70), and WT126-130 (SEQ ID NO: 71) were synthesized by GL Biochem (Shanghai) Corporation Ltd. WT1-frg1 (SEQ ID NO: 64) was prepared in the same way as in the aforementioned WT1-frg3 (SEQ ID NO: 57).
The measurement of the antibody titer using WT1-frg1 (SEQ ID NO: 64) was performed in the same way as in the aforementioned WT1-frg3 (SEQ ID NO: 57). The measurement of the antibody titer using WT126-134 (SEQ ID NO: 65), WK126-134 (SEQ ID NO: 66), WT128-134 (SEQ ID NO: 67), WT126-132 (SEQ ID NO: 68), WT129-134 (SEQ ID NO: 69), WT126-131 (SEQ ID NO: 70), or WT126-130 (SEQ ID NO: 71) was performed in the same way as in the aforementioned WT332-347 (SEQ ID NO: 58), etc.

[2] = test system: anti-WT1235 peptide IgG antibody; assay: ELISA using variant WT1 antigen peptide as immobilized antigen to assay anti-WT1235 peptide IgG antibody; assay type: binding, human; conditions: serum of thymic carcinoma patient given WT1235 peptide; increase in titer detected; FIG. 19
Experimental: WK235-243 (SEQ ID NO: 62) and WT237-243 (SEQ ID NO: 63) were synthesized by GL Biochem (Shanghai) Corporation Ltd. WT1-frg2 (SEQ ID NO: 61) was prepared in the same way as in the aforementioned WT1-frg3 (SEQ ID NO: 57).
The measurement of the antibody titer using WT1-frg2 (SEQ ID NO: 61) was performed in the same way as in the aforementioned WT1-frg3 (SEQ ID NO: 57). The measurement of the antibody titer using WK235-243 (SEQ ID NO: 62) or WT237-243 (SEQ ID NO: 63) was performed in the same way as in the aforementioned WT332-347 (SEQ ID NO: 58), etc.

| Molecule | ability as ELISA antigen to measure anti-WT1126 IgG antibody level in patient's serum [1] | ability as ELISA antigen to measure anti-WT1235 IgG antibody level in patient's serum [2] |
| --- | --- | --- |
| B1 | could measure an anti-WT1126 IgG antibody level in patient's serum | – |
| B2 | – | could measure an anti-WT1235 IgG antibody level in patient's serum |
